Assay [1] concerns the target T1, Fc fusion protein of mouse TNFR2 (mouse, UniProt P25119 23-258).
T1 chain: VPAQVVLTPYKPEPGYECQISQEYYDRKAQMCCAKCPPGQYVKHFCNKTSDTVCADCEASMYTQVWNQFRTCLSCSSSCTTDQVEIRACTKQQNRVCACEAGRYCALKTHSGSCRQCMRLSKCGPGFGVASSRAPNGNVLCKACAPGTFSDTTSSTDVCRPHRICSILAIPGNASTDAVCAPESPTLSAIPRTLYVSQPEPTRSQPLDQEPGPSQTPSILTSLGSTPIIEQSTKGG
The assay can be described thus: SPR.

Assay [2] concerns the target T1, Fc fusion protein of mouse TNFR2. Nature of the assay: SPR; BIAcore X-100; Fc fusion proteins of mouse TNFR2 and mouse TNFR1 immobilised on CM5 chip by amine coupling; HBS-EP plus running buffer; single-cycle kinetics, five concentrations up to 100 nM, 2 min injection at 30 μl/min, 2 min dissociation; R2agoTNF fitted with a monovalent and scR2agoTNF-Fc with a bivalent model (avidity); n = 1. In general terms: In SPR one partner is held on a chip, and binding of the other changes the refractive index at the surface.

B1: R2agoTNF (ligand)
chain: VRSSSRTPSDMPVAHVVANPQAEGQLQWTNHGGNALLANGVELRDNQLVVPSEGLYLIYSQVLFSGQGCPSTHVLLTHTISRIAVSYQTPVNLLSAIRSPCQRETPEGAEANPWYEPIYLGGVFQLEPGDRLSAEINRPDYLNFPDSGEVYFGIIAL
In general, koff refers to the first-order rate constant of dissociation. Consider B1, for which the koff in assay [1] worked out at 0.00277 s⁻¹. Moreover, in assay [2], the Kd was found to be 1.75 nM.
